The target in data set [1] is fibrin clots formed from purified bovine fibrinogen with thrombin and CaCl2 (bovine) (UniProt P12799).
In data set [2] the test system is fibrin. The settings on record: competitive binding to the fibrin polymerization pocket; ref [39], [40]; cited from earlier work. From the text:
(§1) In this work, a peptide targeting group (GPR) with an affinity for fibrin was chosen to create a thrombus targeted VLP [38]. The GPR peptide was derived from the N-terminus of the α-chain of fibrin (Gly-Pro-Arg), and was discovered to bind to a pocket in the C-terminal region of the γ-chain [39], [40].

Data set [3] relates to fibrin. The settings on record: compared with original peptide (Gly-Pro-Arg); ref [41]; cited from earlier work. The method, then: In this work, a peptide targeting group (GPR) with an affinity for fibrin was chosen to create a thrombus targeted VLP [38]. The GPR peptide was derived from the N-terminus of the α-chain of fibrin (Gly-Pro-Arg), and was discovered to bind to a pocket in the C-terminal region of the γ-chain [39], [40]. […] A GPR peptide bearing an o-aminophenol for coupling to MS2 was prepared using solid phase peptide synthesis (Figure 1b). The sequence Gly-Gly-Ser-Lys-Gly-Tyr was added to the peptide to increase the spacing between the binding residues and the capsid, as well as provide a functional handle for modification (Tyr). For peptide samples used in op ...

For data set [4] the following is noted: compared with original peptide (Gly-Pro-Arg); ref [41]; cited from earlier work.
Excerpt: as §1

A value given as a limit tells only on which side of the number the result lay.

“MS2 capsids (T19pAF/N87C) without peptide” registered a thrombin-induced clotting time of fibrin (light scattering at 350 nm) at 222 nM MS2 capsid; unchanged in data set [1] of 16 min.

Turning to “GPS-MS2: bacteriophage MS2 T19pAF/N87C capsid with the GPS control peptide coupled to its exterior”, in data set [1], the thrombin-induced clotting time of fibrin (light scattering at 350 nm) at 222 nM MS2 capsid (~20 µM peptide); unchanged was found to be 16 min.

“free GPS peptide with C-terminal tyrosine”: the thrombin-induced clotting time of fibrin (light scattering at 350 nm) at 20 µM peptide; unchanged in data set [1] came to 13 min.

In data set [1], “free GPR peptide with C-terminal tyrosine” yielded a peptide concentration at which thrombin-induced clotting is inhibited (10 µM to 1.7 mM tested) of over 300 µM and a thrombin-induced clotting time of fibrin (light scattering at 350 nm) at 20 µM peptide; unchanged of 18 min.

“Gly-Pro-Arg [originally discovered peptide from N-terminus of the α-chain of fibrin]”: the “Inhibition of thrombin-mediated fibrin clotting” value with fibrin [2] was “inhibit thrombin-mediated fibrin clotting”.

For the substance Gly-Pro-Arg-Pro-Pro, the “Fibrin binding of extended peptide” value in the data set with fibrin [3] is listed as “improved fibrin-binding”. Also, in data set [4], the Proteolytic resistance result is recorded as “increased proteolytic resistance”.

“GPR-MS2: bacteriophage MS2 T19pAF/N87C capsid with the GPR fibrin-targeting peptide coupled to its exterior” displayed a thrombin-induced clotting time of fibrin (light scattering at 350 nm) at 222 nM MS2 capsid (~20 µM peptide) in data set [1] of 51 min.
